Experiments:
P-selectin (PS-Rg) [1] = biological target: T1, P-selectin (PS-Rg) (Homo sapiens, UniProt P16109 P16109:42-321); experiment: filter; HSMC, 37 C; conditions: tags: human IgG Fc fusion; chain copies: 2 (stated dimer)
L-selectin (LS-Rg) = biological target: T2, L-selectin (LS-Rg) (Homo sapiens, UniProt P14151 P14151:39-332); experiment: filter; 37 C, SHMCK-140; conditions: tags: human IgG2 Fc fusion, chain copies: dimer, label: 32P
T2 sequence: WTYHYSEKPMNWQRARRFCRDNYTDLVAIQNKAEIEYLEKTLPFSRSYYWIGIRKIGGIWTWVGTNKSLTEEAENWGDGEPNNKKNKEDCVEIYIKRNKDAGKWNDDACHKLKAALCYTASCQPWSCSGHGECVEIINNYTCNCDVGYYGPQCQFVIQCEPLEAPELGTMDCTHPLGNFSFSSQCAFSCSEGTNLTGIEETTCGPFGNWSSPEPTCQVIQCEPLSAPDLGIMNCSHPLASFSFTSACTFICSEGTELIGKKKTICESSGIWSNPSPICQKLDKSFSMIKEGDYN
Experimental: As described in SELEX Patent Applications, a nitrocellulose filter partitioning method was used to determine the affinity of RNA ligands for LS-Rg and for other proteins. Filter discs (nitrocellulose/cellulose acetate mixed matrix, 0.45 μm pore size, Millipore) were placed on a vacuum manifold and washed with 3 ml of SHMCK 140 buffer under vacuum. Reaction mixtures, containing ³²P labeled RNA pools and unlabeled LS-Rg, were incubated in SHMCK 140 for 10-20 min at 37° C., and then immediately washed with 3 ml SHMCK 140. The filters were air-dried and counted in a Beckman LS6500 liquid scintillation counter without fluor. Alternatively, binding studies employed 96 well micro-titer manifolds essentially as described in Example 13, paragraph E.
These calculations assume two ligand binding sites per chimera.

P-selectin (PS-Rg) [2] = biological target: T1, P-selectin (PS-Rg); experiment: filter; HSMC
P-selectin (PS-Rg) [3] = biological target: T1, P-selectin (PS-Rg); experiment: inhibition; sialyl-LewisX; conditions: tags: human IgG Fc fusion, chain copies: 2 (stated dimer)
Experimental: The ability of evolved RNA pools or cloned ligands to inhibit the binding of PS-Rg to sialyl-Lewis^x was tested in competitive ELISA assays (C. Foxall et al., 1992, supra). For these assays, the wells of Corning (25801) 96 well microtiter plates were coated with 100 ng of a sialyl-Lewis^x/BSA conjugate, air dried overnight, washed with 300 μl of PBS(−) and then blocked with 1% BSA in HSMC for 60 min at room temperature. RNA ligands were incubated with PS-Rg in HSMC/1% BSA at room temperature for 15 min. After removal of the blocking solution, 50 μl of PS-Rg (10 nM) or a PS-Rg (10 nM)/RNA ligand mix was added to the coated, blocked wells and incubated at room temperature for 60 minutes. The binding solution was removed, wells were washed with 300 μl of PBS(−) and then probed with HRP conjugated anti-human IgG, at room temperature to quantitate PS-Rg binding. After a 30 minute incubation at room temperature in the dark with OPD peroxidase substrate (Sigma P9187), the extent of PS-Rg binding and percent inhibition was determined from the OD₄₅₀.

P-selectin (PS-Rg) [4] = biological target: T1, P-selectin (PS-Rg); experiment: filter; 37 C, HSMC; conditions: tags: human IgG1 Fc fusion; chain copies: dimer; label: 32P
[5] = tags: human IgG Fc fusion, chain copies: 2 (stated dimer)

T1 sequence (P16109 42-321, one chain of several): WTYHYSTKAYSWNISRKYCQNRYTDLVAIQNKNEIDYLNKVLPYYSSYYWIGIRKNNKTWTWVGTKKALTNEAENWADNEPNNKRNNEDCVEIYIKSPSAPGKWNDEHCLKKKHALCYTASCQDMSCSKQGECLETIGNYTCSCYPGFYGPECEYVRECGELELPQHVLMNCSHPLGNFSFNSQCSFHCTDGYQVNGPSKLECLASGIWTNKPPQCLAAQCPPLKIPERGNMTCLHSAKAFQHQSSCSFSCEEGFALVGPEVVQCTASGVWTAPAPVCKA

B1: PF416 (ssRNA)
RNA: GGGAGACAAGAAUAAACGCUCAACAGUUCACUCAACCGGCACCAGACUACGAUCAGCAUUGGCGAGUGAACACUUCGACAGGAGGCUCACAACAGGC
modifications: 2'-F C and U
- Kd (P-selectin (PS-Rg) [1]): 0.063 nM

B2: LF1518 (ssRNA)
RNA: GGGAGGACGAUGCGGGCAAAUUGCAUGCGUUUUCGAGUGCUUGCUCAGACGACUCGCCCGA
modifications: 2'-F on all C and U
- Kd (L-selectin (LS-Rg)): 0.42 nM

Binder: CUCAACGAGCCAGGAACAUCGACGUCAGCAAACGCGAG (ssRNA, 2'-F on all C and U; 2'-OMe purines at 11 positions) [PF377M6]
- Kd (P-selectin (PS-Rg) [2]; tags: human IgG1 Fc fusion, chain copies: dimer): 0.25 nM

Binder: CUCAACGAGCCAGGAACAUCGACGUCAGCAAACGCGAG (ssRNA, 2'-F C and U; 2'-OMe G 7,9,14,21,36 and A 8,15,18,22,27,31,37 as listed) [PF377M3]
- Kd (P-selectin (PS-Rg) [2]; [5]): 0.9 nM
- IC50 (P-selectin (PS-Rg) [3]): 10 nM

Binder: CUCAACGAGCCAGGAACAUCGACGUCAGCAAACGCGAG (ssRNA, 2'-F C and U) [PF377s1F]
- Kd (P-selectin (PS-Rg) [2]; tags: human IgG Fc fusion, chain copies: 2 (stated dimer), label: fluorescein (inferred)): 0.06 nM
- IC50 (P-selectin (PS-Rg) [3]; label: fluorescein (inferred)): 3 nM

Binder: CUCAACGAGCCAGGAACAUCGACGUCAGCAAACGCGAG (ssRNA, 2'-F C and U; 2'-OMe G7 G9 G14 G21 A8 A15 A18 A22 A27 A31) [PF377M1]
- Kd (P-selectin (PS-Rg) [2]; [5]): 0.12 nM

Binder: CUCAACGAGCCAGGAACAUCGACGUCAGCAAACGCGAG (ssRNA, 2'-F C and U, biotin) [PF377s1B]
- Kd (P-selectin (PS-Rg) [2]; [5]): 0.065 nM
- IC50 (P-selectin (PS-Rg) [3]): 3 nM

B3: PF377M4 (ssRNA)
RNA: CUCAACGAGCCAGGAACAUCGACGUCAGCAAACGCGAG
modifications: 2'-F C and U; 2'-OMe G 7,9,13,14,21,24,28,36 and A 8,15,18,22,27,30,31,37 as listed
- Kd (P-selectin (PS-Rg) [2]; [5]): 1.7 nM

B4: PF398 (ssRNA)
RNA: GGGAGACAAGAAUAAACGCUCAACGAACCACGGGGAAAUCCACCAGUAACACGCGAGGCAAACAGACCCUCUUCGACAGGAGGCUCACAACAGGC
modifications: 2'-F C and U
- Kd (P-selectin (PS-Rg) [1]): 0.046 nM

B5: PF373 (ssRNA)
RNA: GGGAGACAAGAAUAAACGCUCAACGAAUCAGUAAACAUAACACCAUGAAACAUAAAUAGCACGCGAGACGUCUUCGACAGGAGGCUCACAACAGGC
modifications: 2'-F on all C and U
- Kd (P-selectin (PS-Rg) [4]): 0.0495 nM

B6: LF1807 (ssRNA)
RNA: GGGAGGACGAUGCGGAGUCUUAGGCAGCGCGUUUUCGAGCUACUCCAUCGCCAGUCAGACGACUCGCCCGA
modifications: 2'-F on all C and U
- Kd (L-selectin (LS-Rg); hairpin with 7-nt bulge): 0.034 nM

B7: PF378 (ssRNA)
RNA: GGGAGACAAGAAUAAACGCUCAACGAUGAGCGUGACCGAAGCUAUAAUCAGGUCGAUUCACCAAGCAAUCUUAUUCGACAGGAGGCUCACAACAGGC
modifications: 2'-F on all C and U
- Kd (P-selectin (PS-Rg) [4]): 0.0515 nM

B8: LF1811 (ssRNA)
RNA: GGGAGGACGAUGCGGUAAUCUCUUAGGCAUCGCGUUAAUCGAGAUAGAUCACCGUCAGACGACUCGCCCGA
modifications: 2'-F on all C and U
- Kd (L-selectin (LS-Rg)): 0.19 nM

B9: PF411 (ssRNA)
RNA: GGGAGACAAGAAUAAACGCUCAACAACCCAACCAUCUAGAGCUUCGAACCAUGGUAUACAAGGGAACACAAAAUUCGCGGAGGCUCCAACAGGCGGC
modifications: 2'-F on all C and U
- Kd (P-selectin (PS-Rg) [4]): 0.013 nM

B10: LF1523 (ssRNA)
RNA: GGGAGGACGAUGCGGUUCUUAAGCAGCGCGUCAAUCGAGCUAACCCAGACGACUCGCCCGA
modifications: 2'-F on all C and U
- Kd (L-selectin (LS-Rg)): 0.25 nM

B11: PF396 (ssRNA)
RNA: GGGAGACAAGAAUAAACGCUCAAGCGGUCAGAAACAAUAGCUGGAUACAUACCGCGCAUCCGCUGGGCGAUAUUCGACAGGAGGCUCACAACAGGC
modifications: 2'-F on all C and U
- Kd (P-selectin (PS-Rg) [4]): 0.024 nM

B12: LF1514 (ssRNA)
RNA: GGGAGGACGAUGCGGUACCUCAAAUUGCGUGUUUUCAAGCAGUAUCAGACGACUCGCCCGA
modifications: 2'-F on all C and U
- Kd (L-selectin (LS-Rg); hairpin with 7-nt bulge): 0.13 nM

Binder: CACUCAACCGGCACCAGACUACGAUCAGCAUUGGCGAGUG (ssRNA, 2'-F C and U) [PF416s2]
- Kd (P-selectin (PS-Rg) [2]; [5]): 0.15 nM
- IC50 (P-selectin (PS-Rg) [3]): 3 nM

B13: PF412 (ssRNA)
RNA: GGGAGACAAGAAUAAACGCUCAACGACCACAAUACAAACUCGUAUGGAACACGCGAGCGACAGUGACGCAUUUUCGACAGGAGGCUCACAACAGGC
modifications: 2'-F on all C and U
- Kd (P-selectin (PS-Rg) [4]): 0.45 nM

B14: LF1508 (ssRNA)
RNA: GGGAGGACGAUGCGGGACCCUUAGGCAACGUGUUUUCAAGUUGGUCAGACGACUCGCCCGA
modifications: 2'-F on all C and U
- Kd (L-selectin (LS-Rg)): 0.5 nM

B15: PF387 (ssRNA)
RNA: GGGAGACAAGAAUAAACGCUCAACGCACCAGGAACAACGAGAACCAUCAGUAAACGCGAGCGAUUGCAUGUUCGACAGGAGGCUCACAACAGGC
modifications: 2'-F C and U
- Kd (P-selectin (PS-Rg) [1]): 0.016 nM

B16: PF386 (ssRNA)
RNA: GGGAGACAAGAAUAAACGCUCAAACAAGAGAGUCAAACCAAGUGAGAUCAGAGCGUUUAGCGCGGAAAGCACAUUCGACAGGAGGCUCACAACAGGC
modifications: 2'-F C and U
- Kd (P-selectin (PS-Rg) [1]): 0.0455 nM

B17: PF388 (ssRNA)
RNA: GGGAGACAAGAAUAAACGCUCAACUGGCAACGGGAUAACAACAAAUGUCACCAGCACUAGCGAGACGGAAGGUUCGACAGGAGGCUCACAACAGGC
modifications: 2'-F C and U
- Kd (P-selectin (PS-Rg) [1]): 0.09 nM

B18: PF404 (ssRNA)
RNA: GGGAGACAAGAAUAAACGCUCAAUCAGCAGUAAGCGAUCCUAUAAAGAUCAACUAGCCAAAGAUGACUUAUUCGACAGGAGGCUCACAACAGGC
modifications: 2'-F C and U
- Kd (P-selectin (PS-Rg) [1]): 0.0475 nM

Binder: CGCUCAACGAGCCAGGAACAUCGACGUCAGCAAACGCGAGCG (ssRNA, 2'-F C and U) [PF377s2]
- Kd (P-selectin (PS-Rg) [2]; [5]): 0.045 nM
- IC50 (P-selectin (PS-Rg) [3]): 4 nM

B19: LF1615 (ssRNA)
RNA: GGGAGGACGAUGCGGCGUAACUUCAGCGGUGUGUUAAUCAAGCCUUACGCCAUCUCAGACGACUCGCCCGA
modifications: 2'-F on all C and U
- Kd (L-selectin (LS-Rg)): 0.32 nM

B20: LF1513 (ssRNA)
RNA: GGGAGGACGAUGCGGGCUCUUCAGCAACGUGUUAUCAAGUUAGCCCAGACGACUCGCCCGA
modifications: 2'-F on all C and U
- Kd (L-selectin (LS-Rg)): 0.16 nM

B21: PF422 (ssRNA)
RNA: GGGAGACAAGAAUAAACGCUCAACGUCAAGCCAGAAUCCGGAACACGCGAGAAAACAAAUCAACGACCAAUCGAUUCGACAGGAGGCUCACAAAGGC
modifications: 2'-F on all C and U
- Kd (P-selectin (PS-Rg) [4]): 0.172 nM

B22: PF380 (ssRNA)
RNA: GGGAGACAAGAAUAAACGCUCAACGAGCAAAAGUACUCACGGGACCAGGAGAUCAGCAACACGCGAGACGAAAUUCGACAGGAGGCUCACAACAGGC
modifications: 2'-F on all C and U
- Kd (P-selectin (PS-Rg) [4]): 0.0745 nM

B23: LF1610 (ssRNA)
RNA: GGGAGGACGAUGCGGAGGGUCUUAAGCAGUGUGAUAAUCAAACUACUCUCCGUGUCAGACGACUCGCCCGA
modifications: 2'-F on all C and U
- Kd (L-selectin (LS-Rg)): 0.53 nM

B24: LF1613 (ssRNA)
RNA: GGGAGGACGAUGCGGUGCUAUUCUUAAGCGGCGUGUUUUUCAAGCCAAUAUCAUCAGACGACUCGCCCGA
modifications: 2'-F on all C and U
- Kd (L-selectin (LS-Rg)): 0.034 nM

B25: PF395 (ssRNA)
RNA: GGGAGACAAGAAUAAACGCUCAACGAGCAAGGAACGAAUACAAACCAGGAAACUCAGCAACACGCGAGCAGUAAGAAUUCGACAGGAGGCUCACAACAGGC
modifications: 2'-F on all C and U
- Kd (P-selectin (PS-Rg) [4]): 0.026 nM

B26: PF417 (ssRNA)
RNA: GGGAGACAAGAAUAAACGCUCAAAAAGACGUAUUCGAUUCGAAACGAGAAAGACUUCAAGUGAGCCCGCAGUUCGACAGGAGGCUCACAACAGGC
modifications: 2'-F C and U
- Kd (P-selectin (PS-Rg) [1]): 0.069 nM

B27: PF381 (ssRNA)
RNA: GGGAGACAAGAAUAAACGCUCAAAGGAUCACACAAACAUCGGUCAAUAAAUAAGUAUUGAUAGCGGGGAUAUUCGACAGGAGGCUCACAACAGGC
modifications: 2'-F on all C and U
- Kd (P-selectin (PS-Rg) [4]): 0.0165 nM
